This note sets out measurements from patent publication US20140120095A1 (Boehringer Ingelheim, published 2014).

In experiment [1] the target is T1, recombinant human DLL4 (C-terminally His-tagged extracellular domain, R&D Systems) (human, UniProt Q9NR61 25-522, biotinylated in the competition ELISA).
T1 construct: also called rhDLL4; hDLL4
Nature of the experiment: SPR (Biacore), recombinant human DLL4.

Experiment [2] deals with T2, human DLL4 expressed on cells (CHO-hDLL4; HEK293-hDLL4) (human, UniProt Q9NR61 27-685).
T2 construct: full length human DLL4 overexpressed on CHO cells (FMAT, FACS) or HEK293 cells (reporter assay)
Nature of the experiment: competition FMAT, labelled hNotch1-Fc on CHO-hDLL4 cells.

Experiment [3] deals with T2, human DLL4 expressed on cells …. Nature of the experiment: cell-based or functional assay.
Experiment [4] concerns the target T1, recombinant human DLL4 (C-terminally …). Nature of the experiment: cell-based or functional assay.
The target of experiment [5] is T3, mouse DLL4 expressed on CHO cells (mouse, UniProt Q9JI71 27-686).
T3 construct: whole, on cells; also called mDLL4; CHO-mDLL4
Nature of the experiment: competition FMAT, labelled hNotch1-Fc on CHO-mDLL4 cells.

Experiment [6] has as its target T4, human DLL4 overexpressed on cells (human, UniProt Q9NR61 27-685). The experiment in a line: cell-based or functional assay.
Experiment [7] deals with T4, human DLL4 overexpressed on cells. Nature of the experiment: FMAT, labelled hNotch1-Fc on CHO-hDLL4, periplasmic extract. An excerpt:
(§1) All calculations are based on the FL1_total signal which comprises the average of the fluorescence per well times the number of counts per well.

A further experiment has as its target T5, human Jagged-1 (human, UniProt P78504 34-1067, limits assumed).
T5 construct: also called hJagged-1; hJAG1
Nature of the experiment: binding ELISA on coated recombinant human Jagged-1, OD 405 nm. As to the method: Absence of binding to homologous ligands human DLL1 and human Jagged-1 is assessed via solid phase binding assay (ELISA). In brief, human DLL1 (Alexis, San Diego, Calif., USA) and human Jagged-1 (Alexis, San Diego, Calif., USA) are coated overnight at 4° C. at 1 μg/mL in a 96-well MaxiSorp plate (Nunc, Wiesbaden, Germany). Wells are blocked with a casein solution (1% in PBS). VHHs are applied as dilution series and binding is detected using a mouse anti-myc (Roche) and an anti-mouse-AP conjugate (Sigma, St. Louis, Mo., USA).

The target of experiment [8] is T6, recombinant human DLL4 (human, UniProt Q9NR61 25-522).
T6 construct: also called rhDLL4; hDLL4
The experiment in a line: binding ELISA, coated rhDLL4. The procedure: (§2) In order to determine cross-reactivity to mouse DII4 a binding ELISA is performed. […] Wells are blocked with a casein solution (1% in PBS). VHHs are applied as dilution series and binding is detected using a mouse anti-myc (Roche) and an anti-mouse-AP conjugate (Sigma, St Louis, Mo., USA) (FIG. 7 A-H). As reference, binding to human DII4 is measured.

For experiment [9], the target named is T7, mouse DLL4 overexpressed on cells (mouse, UniProt Q9JI71 27-686).
T7 construct: whole, on cells; also called CHO-mDLL4; CHO-mDII4
Nature of the experiment: competitive FMAT, hNotch1-Fc on CHO-mDLL4.

The next experiment addresses T8, recombinant mouse DLL4 (mouse, UniProt Q9JI71 27-532).
T8 construct: extracellular domain; also called rmDLL4; mDLL4
Nature of the experiment: binding ELISA, coated rmDLL4. As to the method: as §2

Experiment [10] addresses T9, cynomolgus DLL4 overexpressed on cells (cynomolgus, UniProt Q9NR61 27-685 (human entry)).
T9 construct: also called cyno DII4; cDLL4
T9 chain: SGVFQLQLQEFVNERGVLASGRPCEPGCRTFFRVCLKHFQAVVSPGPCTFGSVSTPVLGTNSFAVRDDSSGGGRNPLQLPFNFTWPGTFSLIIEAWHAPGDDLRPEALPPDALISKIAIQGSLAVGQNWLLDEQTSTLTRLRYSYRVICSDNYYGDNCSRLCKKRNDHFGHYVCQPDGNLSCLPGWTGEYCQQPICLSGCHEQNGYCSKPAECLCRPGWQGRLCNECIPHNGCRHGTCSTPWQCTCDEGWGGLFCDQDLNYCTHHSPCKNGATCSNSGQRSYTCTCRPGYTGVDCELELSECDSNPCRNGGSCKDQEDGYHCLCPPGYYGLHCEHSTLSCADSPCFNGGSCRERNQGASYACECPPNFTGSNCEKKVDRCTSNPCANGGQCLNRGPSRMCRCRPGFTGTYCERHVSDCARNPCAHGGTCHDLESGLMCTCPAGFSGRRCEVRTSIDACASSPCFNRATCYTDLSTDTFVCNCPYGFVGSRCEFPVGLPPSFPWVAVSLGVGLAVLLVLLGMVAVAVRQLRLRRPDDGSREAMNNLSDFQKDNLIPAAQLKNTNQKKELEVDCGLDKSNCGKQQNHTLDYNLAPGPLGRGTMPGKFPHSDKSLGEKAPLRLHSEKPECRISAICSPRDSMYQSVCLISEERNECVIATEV
The experiment in a line: FACS titration on HEK293-cDLL4 cells, MCF. The procedure: (§3) In order to determine the cynomologus cross-reactivity of the VHHs, a FACS binding experiment is performed. Cynomolgus DII4 expressing HEK293 cells (transient or stable transfection) are used for a titration binding experiment of the VHHs. After a 30 minutes incubation on ice, all samples are washed and detection is performed by applying anti-c-myc˜Alexa647 (Santa Cruz Biotechnology, Santa Cruz, Calif., USA). Human and mouse DII4 overexpressing HEK293 cells are taken as reference. The mean MCF value is determined on the FACS Array and used for calculation of the EC₅₀ value (see FIG. 9 A-E).

Experiment [11] deals with T7, mouse DLL4 overexpressed on cells. Nature of the experiment: FMAT, labelled hNotch1-Fc on CHO-mDLL4, periplasmic extract.
Description: as §1

In experiment [12] the target is T6, recombinant human DLL4. Nature of the experiment: SPR Biacore T100, hDLL4 on chip, VHH/Fab injected. As to the method:
Kinetic analysis to determine the affinity of the DII4-VHH interaction is performed by Surface Plasmon Resonance (SPR) on a Biacore T100 instrument. […] Purified VHHs or Fab fragment are injected for 2 minutes at different concentrations (between 10 and 300 nM) and allowed to dissociate for 20 min at a flow rate of 45 μl/min. Between sample injections, the surfaces are regenerated with 10 mM glycine pH1.5 and 100 mM HCl. HBS-N (Hepes buffer pH7.4) is used as running buffer. If possible, data are evaluated by fitting a 1:1 interaction model (Langmuir binding) onto the binding curves. The affinity constant KD is calculated from resulting association and dissociation rate constants (kₐ) and […].

Experiment [13] addresses T6, recombinant human DLL4. The experiment in a line: competition ELISA, biot-hDLL4 to coated hNotch1-Fc. The source says:
Residual binding of biotinylated human DII4 is detected using horseradish peroxidase (HRP) conjugated extravidin (Sigma, St. Louis, Mo., USA) (FIG. 3 A-C). Human DII4 is biotinylated as described above.

The target of experiment [14] is T4, human DLL4 overexpressed on cells. Nature of the experiment: competitive FMAT, hNotch1-Fc on CHO-hDLL4.
The target of experiment [15] is T7, mouse DLL4 overexpressed on cells. Nature of the experiment: FACS titration on HEK293-mDLL4 cells, MCF. As to the method: as §3
Experiment [16] concerns the target T10, recombinant human VEGF165 (human, UniProt P15692-4 27-191, biotinylated in the competition assays).
T10 construct: Bought protein; also called hVEGF165; rhVEGF165
The experiment in a line: SPR Biacore, immobilised hVEGF165, two state reaction model. The procedure: Samples are injected for 2 min and allowed to dissociate up to 20 min at a flow rate of 45 μl/min. In between sample injections, the chip surface is regenerated with 100 mM HCl. HBS-EP+(Hepes buffer pH7.4+EDTA) is used as running buffer. Binding curves are fitted using a Two State Reaction model by Biacore T100 Evaluation Software v2.0.1.
^{(a)}KD = kd1/kₐ₁ * (kd2/(kd2 + kₐ₂)) ^{(b)}Curves are fitted using a Two State Reaction model by Biacore T100 Evaluation Software v2.0.1

For experiment [17], the target named is T10, recombinant human VEGF165. The experiment in a line: AlphaScreen, hVEGF165/hVEGFR1-Fc competition. Also noted: % inhibition: concentration or dose not given beside the values. As to the method: (§4) Finally, streptavidin donor beads (20 μg/ml) are added and after 1 hour of incubation in the dark, fluorescence is measured on the Envision microplate reader.

The target in experiment [18] is T10, recombinant human VEGF165. The experiment in a line: AlphaScreen, hVEGF165/hVEGFR2-Fc competition. The procedure:
as §4

For experiment [19], the target named is T10, recombinant human VEGF165. The experiment in a line: ELISA, hVEGF165/hVEGFR2-Fc competition. Also noted: % inhibition: concentration or dose not given beside the values.
Experiment [20] addresses T10, recombinant human VEGF165. Nature of the experiment: binding ELISA, coated rhVEGF165.
Experiment [21] concerns the target T10, recombinant human VEGF165. Nature of the experiment: AlphaScreen, hVEGF165/hVEGFR2-Fc competition. Also noted: % inhibition: concentration or dose not given beside the values. The procedure:
as §4

The target of experiment [22] is VEGF (used to stimulate HUVEC cells) (UniProt P15692-4 27-191, limits assumed). The experiment in a line: cell-based or functional assay.
Chain of VEGF (used to stimulate HUVEC cells) (P15692 other isoform, or with tags, fused parts or gaps limits assumed): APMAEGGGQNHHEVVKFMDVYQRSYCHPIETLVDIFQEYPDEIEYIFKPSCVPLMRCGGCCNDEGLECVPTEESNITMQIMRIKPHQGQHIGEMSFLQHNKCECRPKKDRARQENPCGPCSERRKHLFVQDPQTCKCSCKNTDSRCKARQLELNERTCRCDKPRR

T10 sequence (P15692 other isoform, or with tags, fused parts or gaps): as the sequence (P15692 other isoform, or with tags, fused parts or gaps limits assumed) above
T7 sequence (Q9JI71 27-686): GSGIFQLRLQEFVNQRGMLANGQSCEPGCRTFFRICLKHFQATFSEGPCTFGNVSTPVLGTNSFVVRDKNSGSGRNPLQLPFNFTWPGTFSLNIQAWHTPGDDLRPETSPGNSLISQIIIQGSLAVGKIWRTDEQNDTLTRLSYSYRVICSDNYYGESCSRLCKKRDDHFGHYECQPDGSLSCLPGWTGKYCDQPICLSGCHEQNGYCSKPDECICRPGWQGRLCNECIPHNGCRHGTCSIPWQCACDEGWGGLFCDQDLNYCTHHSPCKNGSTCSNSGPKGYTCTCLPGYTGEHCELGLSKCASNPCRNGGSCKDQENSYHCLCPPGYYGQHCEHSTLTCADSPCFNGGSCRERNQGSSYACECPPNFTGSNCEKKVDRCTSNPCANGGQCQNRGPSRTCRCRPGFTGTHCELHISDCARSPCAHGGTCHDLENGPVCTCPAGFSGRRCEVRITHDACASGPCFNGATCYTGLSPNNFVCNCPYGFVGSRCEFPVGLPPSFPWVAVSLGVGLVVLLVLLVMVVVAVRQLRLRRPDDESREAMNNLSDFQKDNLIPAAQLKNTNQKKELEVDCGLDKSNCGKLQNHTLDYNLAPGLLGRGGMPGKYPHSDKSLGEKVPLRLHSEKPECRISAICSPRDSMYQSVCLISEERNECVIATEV
T8 sequence (Q9JI71 27-532): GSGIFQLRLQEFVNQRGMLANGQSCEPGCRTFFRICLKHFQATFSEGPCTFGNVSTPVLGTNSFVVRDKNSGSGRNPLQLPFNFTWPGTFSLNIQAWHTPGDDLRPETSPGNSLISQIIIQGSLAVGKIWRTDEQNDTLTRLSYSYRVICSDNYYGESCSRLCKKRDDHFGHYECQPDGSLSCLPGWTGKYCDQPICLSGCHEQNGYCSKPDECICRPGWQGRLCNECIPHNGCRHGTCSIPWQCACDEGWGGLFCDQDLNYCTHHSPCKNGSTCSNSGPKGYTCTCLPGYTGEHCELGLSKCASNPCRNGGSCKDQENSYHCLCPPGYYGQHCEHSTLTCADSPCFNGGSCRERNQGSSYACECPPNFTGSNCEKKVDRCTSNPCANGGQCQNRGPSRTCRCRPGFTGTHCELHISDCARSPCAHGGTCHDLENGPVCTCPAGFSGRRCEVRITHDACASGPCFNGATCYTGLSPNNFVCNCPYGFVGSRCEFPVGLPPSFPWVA
T3 sequence (Q9JI71 27-686): as the sequence (Q9JI71 27-686) above

B1: DLLBII039 (VHH, not shown: small tags and cut ends)
VHH: EVQLVESGGGLVQPGGSLRLSCAASGFTIGSYDMSWVRRAPGKGPEWVSSISSGGGSTYYADYVKGRFTISRDNAKNTLYLQMNSLRPEDTAVYYCAADRYIWARQGEYWGAYEYDYWGQGTLVTVSS
Take B1: in [1], the Kd amounted to 1.8 nM, the koff came to 0.00081 s⁻¹ and the kon stood at 450000 M⁻¹ s⁻¹. This molecule also yielded an IC50 in [2] of 6.2 nM. Moreover, in experiment [3], the “IC50, DLL4-mediated reporter assay (hDLL4)” value was 16 nM. For the same molecule, in [4], the “IC50, DLL4-mediated HUVEC proliferation assay” value is 14.4 nM and the “Inhibition (%), DLL4-mediated HUVEC proliferation assay” value was found to be 100%. The IC50 in experiment [5] was 43.8 nM.

B2: DLLBII96C03 (VHH)
VHH: EVQLVESGGGLVQPGGSLRLSCAASGFTFGNYDMSWVRQAPGKGPEWVSAINSGGGDTYYADSVKGRFTISRDNAKNTLYLQMNSLKPEDTAVYYCATPRGWGPTGPHEYGYWGQGTQVTVSS
notes: also called 96C3
In the case of B2, in [6], the “IC50, DLL4/Notch1 reporter assay” value came out at 5160 nM. Moreover, the figures for the “% inh” value in experiment [7] and in experiment [11] were 75% and 83%, respectively. The binding result with human Jagged-1 is “no binding (tested: 5e-7 M)”; in [10] it was “no binding (tested: 1000 nM)”. In addition, the concentration giving a half-maximal response (EC50) with recombinant human DLL4 [8] amounted to 86.5 nM; in the experiment with recombinant mouse DLL4, 8.7 nM. Also, the figures for the IC50 (in experiment [9]; with recombinant human DLL4 [13]; in [14]) were 28.8 nM, 38.4 nM and 161 nM, respectively. Besides, in the experiment with recombinant human DLL4 [12], the Kd worked out at 310 nM. For the same molecule, in the experiment with recombinant human DLL4 [12], the koff was determined as 0.048 s⁻¹. Further, in the experiment with recombinant human DLL4 [12], the kon came out at 160000 M⁻¹ s⁻¹. Moreover, in experiment [15], the “EC50 (read off the curve)” value was ~20 nM.

B3: VEGFBII023 (VHH, not shown: small tags and cut ends)
chain: EVQLVESGGGLVQTGDSLRLSCEVSGRTFSSYSMGWFRQAQGKEREFVVAISKGGYKYDSVSLEGRFTISKDNAKNTVYLQINSLKPEDTAVYYCASSRAYGSSRLRLADTYEYWGQGTQVTVSSGGGGSGGGGSGGGGSGGGGSGGGGSGGGGSGGGGSGGGGSEVQLVESGGGLVQAGGSLRLSCAASGRTFSNYAMGWFRQAPGKERVLVADISSSGINTYVADAVKGRFTISRDNAKNTVYLQMNSLKPEDTAVYYCAASAWWYSQMARDNYRYWGQGTQVTVSS
notes: Bivalent anti-VEGF VHH; also called VEGFBII23B04-40GS-10E07
Turning to B3, in [16], the Kd was determined as 0.69 nM, the ka1 was found to be 300000 M⁻¹ s⁻¹, the ka2 worked out at 0.024 s⁻¹ and the kd1 stood at 0.018 s⁻¹. Moreover, in experiment [16], the kd2 worked out at 0.00027 s⁻¹. In experiment [17], the “% inhibition” value was 87% and the IC50 was found to be 0.048 nM. For the same molecule, in experiment [18], the half-maximal inhibitory concentration (IC50) was 0.038 nM. For the same molecule, in experiment [19], the “% inhibition” value came out at 100% and the IC50 was determined as 0.213 nM. Besides, the concentration giving a half-maximal response (EC50) in experiment [20] was 0.221 nM. In experiment [21], the “% inhibition” value is 100% and the IC50 was found to be 0.046 nM. For the same molecule, in [22], the “% inhibition, VEGF HUVEC Erk phosphorylation assay” value is 100% and the “IC50, VEGF HUVEC Erk phosphorylation assay” value is 0.25 nM.
